Here are results for 9 molecules from patent publication US20150259430A1 (MAB DISCOVERY, published 2015).

Experiment [1] concerns the target T1, recombinant Fc chimeric conjugate of human EGFR (human, UniProt P00533 25-645).
T1 construct: extracellular domain; Coated on the ELISA plate; also called HER1; Her1
The experiment is described as follows: ELISA, coated antigen; supernatant IgG 1500.0 ng/ml.
Description: (§1) Microtiter plates were coated with a) c-Met, IGF-1R, EGFR, HER2, and/or HER3 protein or b) EGFR, HER2, and/or HER3 (recombinant Fc chimeric conjugates of human c-Met, IGF-1R, EGFR, HER2, HER3 or IL12 Rβ1). After a blocking process, specific antibodies from B-cell supernatants bind to the targets and are then detected by a POD-labeled anti-rabbit IgG antibody. The IL12R binding was used as a counter-screen.
(§2) 12.5 μL 0.5 μg/mL protein in PBS was transferred to a microtiter plate incubated and washed 3× with Wash Buffer. 90 μL Block Buffer was added to each well, incubated and washed. 12.5 μL Standard Antibody (Anti-EGF-Receptor; HER2 Rabbit anti-Human Monoclonal (extracellular domain) (SP3) Antibody; HER3 (N-terminal) antibody; start concentration 2 μg/ml; IL-12Rbeta1 antibody start concentration 500 ng/ml) in 1:2 dilutions or sample diluted in ELISA buffer was added, incubated and washed. 12.5 μl 1:5000 POD-Antibody (Anti-rabbit IgG, peroxidase-linked species-specific Fab2 fragment (from donkey) (ECL); assay dilution: 1:5000) in Elisa Buffer was added, incubated and washed. 15 μl TMB was added and 15 μl HCl was added after sufficient development. Absorbance (Optical Density O.D.) was read at 450 nm/620 nm.

Experiment [2] deals with T2, recombinant Fc chimeric conjugate of human HER2 (human, UniProt P04626 23-652).
T2 construct: extracellular domain; Coated on the ELISA plate
Described as above.
Description: as §1, §2

Experiment [3] deals with T3, recombinant Fc chimeric conjugate of human HER3 (human, UniProt P21860 20-643).
T3 construct: extracellular domain; Coated on the ELISA plate
The description is as above.
Description: as §1, §2

For experiment [4], the target named is T1, recombinant Fc chimeric conjugate of …. The experiment is described as follows: ELISA, coated antigen; supernatant IgG 425.7 ng/ml. In general terms: In an ELISA, binding on a coated surface is turned into a signal by an enzyme label.
Description: as §1, §2
Experiment [5] concerns the target T2, recombinant Fc chimeric conjugate of …. In words: ELISA, coated antigen; supernatant IgG 425.7 ng/ml.
Description: as §1, §2
The target of experiment [6] is T3, recombinant Fc chimeric conjugate of …. In words: ELISA, coated antigen; supernatant IgG 425.7 ng/ml.
Description: as §1, §2
Experiment [7] addresses T1, recombinant Fc chimeric conjugate of …. The experiment is described as follows: ELISA, coated antigen; supernatant IgG 81.8 ng/ml.
Description: as §1, §2
For experiment [8], the target named is T2, recombinant Fc chimeric conjugate of …. In words: ELISA, coated antigen; supernatant IgG 81.8 ng/ml.
Description: as §1, §2
Experiment [9] deals with T3, recombinant Fc chimeric conjugate of …. The experiment is described as follows: ELISA, coated antigen; supernatant IgG 81.8 ng/ml.
Description: as §1, §2
In experiment [10] the target is T1, recombinant Fc chimeric conjugate of …. The experiment is described as follows: ELISA, coated antigen; supernatant IgG 719.9 ng/ml.
Description: as §1, §2
Experiment [11] deals with T2, recombinant Fc chimeric conjugate of …. In words: ELISA, coated antigen; supernatant IgG 719.9 ng/ml.
Description: as §1, §2
The target of experiment [12] is T3, recombinant Fc chimeric conjugate of …. In words: ELISA, coated antigen; supernatant IgG 719.9 ng/ml.
Description: as §1, §2
Experiment [13] addresses T1, recombinant Fc chimeric conjugate of …. The experiment is described as follows: ELISA, coated antigen; supernatant IgG 377.5 ng/ml.
Description: as §1, §2
The target in experiment [14] is T2, recombinant Fc chimeric conjugate of …. The experiment is described as follows: ELISA, coated antigen; supernatant IgG 377.5 ng/ml.
Description: as §1, §2
Experiment [15] deals with T3, recombinant Fc chimeric conjugate of …. The experiment is described as follows: ELISA, coated antigen; supernatant IgG 377.5 ng/ml.
Description: as §1, §2
For experiment [16], the target named is T4, recombinant Fc chimeric conjugate of human c-Met (human, UniProt P08581 25-932).
T4 construct: extracellular domain; Coated on the ELISA plate
The experiment is described as follows: ELISA, coated antigen; supernatant IgG 51.60 ng/mL.
Description: as §1, §2

The target of experiment [17] is T2, recombinant Fc chimeric conjugate of …. The experiment is described as follows: ELISA, coated antigen; supernatant IgG 51.60 ng/mL.
Description: as §1, §2
Experiment [18] has as its target T3, recombinant Fc chimeric conjugate of …. In words: ELISA, coated antigen; supernatant IgG 51.60 ng/mL.
Description: as §1, §2
The target of experiment [19] is T4, recombinant Fc chimeric conjugate of …. The experiment is described as follows: ELISA, coated antigen; supernatant IgG 183.28 ng/mL.
Description: as §1, §2
For experiment [20], the target named is T1, recombinant Fc chimeric conjugate of …. The description is as above.
Description: as §1, §2
The target of experiment [21] is T2, recombinant Fc chimeric conjugate of …. The description is as above.
Description: as §1, §2
Experiment [22] concerns the target T3, recombinant Fc chimeric conjugate of …. The experiment is described as above.
Description: as §1, §2
Experiment [23] concerns the target T5, recombinant Fc chimeric conjugate of human IGF-1R (human, UniProt P08069 31-935).
T5 construct: extracellular domain; Coated on the ELISA plate
The experiment is described as follows: ELISA, coated antigen.
Description: as §1, §2

For experiment [24], the target named is T4, recombinant Fc chimeric conjugate of …. The experiment is described as follows: ELISA, coated antigen; supernatant IgG 69.04 ng/mL.
Description: as §1, §2
The target of experiment [25] is T2, recombinant Fc chimeric conjugate of …. In words: ELISA, coated antigen; supernatant IgG 69.04 ng/mL.
Description: as §1, §2
Experiment [26] addresses T3, recombinant Fc chimeric conjugate of …. The experiment is described as follows: ELISA, coated antigen; supernatant IgG 69.04 ng/mL.
Description: as §1, §2
The target in experiment [27] is T4, recombinant Fc chimeric conjugate of …. In words: ELISA, coated antigen.
Description: as §1, §2
For experiment [28], the target named is T1, recombinant Fc chimeric conjugate of …. The experiment is described as follows: ELISA, coated antigen.
Description: as §1, §2
Experiment [29] deals with T2, recombinant Fc chimeric conjugate of …. In words: ELISA, coated antigen.
Description: as §1, §2

Residue numbers refer to the chain shown, from its start.

T4 sequence (P08581 25-932, change not shown): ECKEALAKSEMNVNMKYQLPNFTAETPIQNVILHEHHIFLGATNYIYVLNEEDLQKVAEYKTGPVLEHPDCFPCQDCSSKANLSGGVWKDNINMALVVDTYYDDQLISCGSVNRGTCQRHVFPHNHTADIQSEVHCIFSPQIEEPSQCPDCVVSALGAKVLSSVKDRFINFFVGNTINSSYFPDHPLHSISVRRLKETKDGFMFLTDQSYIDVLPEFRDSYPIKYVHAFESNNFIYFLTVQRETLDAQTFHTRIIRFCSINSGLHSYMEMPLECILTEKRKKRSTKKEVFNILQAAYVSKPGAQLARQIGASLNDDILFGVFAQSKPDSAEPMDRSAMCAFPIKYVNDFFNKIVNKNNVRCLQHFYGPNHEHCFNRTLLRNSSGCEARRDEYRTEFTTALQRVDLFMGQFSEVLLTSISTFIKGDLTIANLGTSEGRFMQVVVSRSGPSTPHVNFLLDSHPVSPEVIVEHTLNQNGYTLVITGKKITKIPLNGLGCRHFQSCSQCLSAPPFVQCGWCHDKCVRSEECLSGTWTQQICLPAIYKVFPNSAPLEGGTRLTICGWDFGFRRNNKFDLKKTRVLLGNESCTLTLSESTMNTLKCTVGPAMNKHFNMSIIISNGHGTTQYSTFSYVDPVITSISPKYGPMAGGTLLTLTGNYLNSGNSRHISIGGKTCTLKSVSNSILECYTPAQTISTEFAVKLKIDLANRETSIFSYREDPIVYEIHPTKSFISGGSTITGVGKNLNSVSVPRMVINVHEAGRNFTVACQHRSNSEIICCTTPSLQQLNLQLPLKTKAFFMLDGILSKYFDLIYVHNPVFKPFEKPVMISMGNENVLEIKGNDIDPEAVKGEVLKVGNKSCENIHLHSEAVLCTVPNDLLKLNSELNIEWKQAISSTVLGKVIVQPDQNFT
T3 sequence (P21860 20-643, change not shown): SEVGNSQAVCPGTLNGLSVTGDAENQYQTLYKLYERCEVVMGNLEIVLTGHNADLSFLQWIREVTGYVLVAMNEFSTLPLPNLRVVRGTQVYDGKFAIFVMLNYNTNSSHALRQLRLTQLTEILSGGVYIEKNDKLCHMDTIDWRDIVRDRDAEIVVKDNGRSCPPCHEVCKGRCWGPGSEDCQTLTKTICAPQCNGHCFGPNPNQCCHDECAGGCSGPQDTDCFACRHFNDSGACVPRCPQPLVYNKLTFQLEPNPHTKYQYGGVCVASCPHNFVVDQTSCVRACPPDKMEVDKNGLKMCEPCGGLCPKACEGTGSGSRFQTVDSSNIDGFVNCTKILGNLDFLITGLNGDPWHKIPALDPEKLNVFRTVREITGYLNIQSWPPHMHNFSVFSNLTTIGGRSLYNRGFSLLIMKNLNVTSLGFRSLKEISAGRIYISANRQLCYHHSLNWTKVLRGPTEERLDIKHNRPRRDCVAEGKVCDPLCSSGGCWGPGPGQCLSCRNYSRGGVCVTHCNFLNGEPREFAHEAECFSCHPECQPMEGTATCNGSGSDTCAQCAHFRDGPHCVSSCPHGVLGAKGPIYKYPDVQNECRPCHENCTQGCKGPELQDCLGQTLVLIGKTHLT
T5 sequence (P08069 31-935, change not shown): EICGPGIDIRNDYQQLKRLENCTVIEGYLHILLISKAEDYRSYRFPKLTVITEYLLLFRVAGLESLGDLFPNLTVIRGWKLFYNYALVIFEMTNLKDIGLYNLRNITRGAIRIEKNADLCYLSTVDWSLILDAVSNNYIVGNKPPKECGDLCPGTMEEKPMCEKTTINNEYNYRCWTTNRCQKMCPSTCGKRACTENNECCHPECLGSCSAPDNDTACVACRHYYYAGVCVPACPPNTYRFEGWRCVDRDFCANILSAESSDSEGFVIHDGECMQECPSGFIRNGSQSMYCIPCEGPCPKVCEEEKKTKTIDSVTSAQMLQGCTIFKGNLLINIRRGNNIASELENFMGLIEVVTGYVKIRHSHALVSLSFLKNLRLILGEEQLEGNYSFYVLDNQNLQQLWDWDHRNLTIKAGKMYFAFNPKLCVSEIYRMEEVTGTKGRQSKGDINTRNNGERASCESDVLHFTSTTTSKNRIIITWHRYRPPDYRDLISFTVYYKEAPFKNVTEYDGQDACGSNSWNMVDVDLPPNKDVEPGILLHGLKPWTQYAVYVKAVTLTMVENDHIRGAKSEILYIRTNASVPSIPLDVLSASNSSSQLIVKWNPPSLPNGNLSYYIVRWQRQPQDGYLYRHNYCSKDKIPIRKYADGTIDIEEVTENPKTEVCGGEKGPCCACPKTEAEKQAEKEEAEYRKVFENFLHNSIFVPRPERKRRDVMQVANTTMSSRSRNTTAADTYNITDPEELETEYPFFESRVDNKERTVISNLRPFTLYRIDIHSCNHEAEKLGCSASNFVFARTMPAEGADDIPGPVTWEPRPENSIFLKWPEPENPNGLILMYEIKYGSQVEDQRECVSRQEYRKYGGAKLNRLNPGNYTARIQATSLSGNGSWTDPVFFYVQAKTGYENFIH

B1: Antibody 86 (antibody, V domains shown)
VH: QEQLKESGGGLVTPGGTLTLTCTVSGIDLSNYAMVWVRQAPGKGLEWIGIIYTTASTTYANWAKGRFTISKTSTTVDLKITSPTTEDTATYFCVRRSGWDGFDPWGPGTLVTVSS
VL: AQVLTQTPASVSAAVGGTVTINCQASESISSYLNWYQQKPGQPPKRLIYRTSTLASGVPSRFKGSGSGTDFTLTISGVECADAATYYCQQDWSSSDVENVFGGGTEVVVK
notes: rabbit IgG in B-cell supernatant
On to B1, for which the entries for the “Optical density (OD)” value in [1], in experiment [2] and in experiment [3] were 1.1 OD, 1.8 OD and 0.8 OD, respectively.

B2: Antibody 65 (antibody, V domains shown)
VH: QSVEESGGRLVTPGTPLTLTCTVSGFSLNNYYMTWVRQAPGKGLEWIGVISGSATTYYASWAKGRFTISQTSTTVDLRITSPTTEDTATYFCARSLTADIIDYYNIWGPGTLVTVSL
VL: DVVMTQTPASVSEPVGGTVTIKCQASEDINALLAWYQQKPGQPPKLLIYVASYLQSGVPSRFKGSGSGTEYTLTISGVQCADAATYYCQSAYDSSGYVGAFGGGTEVVVK
notes: as for B1
Regarding B2, the “Optical density (OD)” value in experiment [4] worked out at 2.5 OD; in experiment [5] it was 2.9 OD; in experiment [6], 1.9 OD.

B3: Antibody 48 (antibody, V domains shown)
VH: QSLEESGGDLVKPGASLTLTCTASGFDLNSDYWICWVRQAPGKGLEWIACIDTGYGDIYYASWAKGRFTISKTSSTTVTLQMTSLTAADTATYFCAREIIFHFNLWGPGTLVTVSS
VL: DVVMTQTPASVSEPVGGTVTIKCQASQSIRSYLAWYQQKPGQPPKVLIYKASTLASGVSSRFKGSGSGTQFTLTISDLECADAATYYCQGGVELNNYLYNPFGGGTEVVVK
notes: as for B1
As for B3, the “Optical density (OD)” value in experiment [7] turned out to be 1.2 OD; in experiment [8], 1.2 OD; in [9], 1.1 OD.

B4: Antibody 37 (antibody, V domains shown)
VH: B3 VH with K12Q, G14E, A15G, T22K, F26L, L28F, N29S, D31S, I70M, I99K
VL: B3 VL with R30K, S31N, A34S, I48L, L94V
notes: as for B1
For B4, the “Optical density (OD)” value in experiment [10] came out at 2.9 OD; in experiment [11], 2.7 OD; in experiment [12], 2.7 OD.

B5: Antibody 49 (antibody, V domains shown)
VH: B3 VH with D31N
VL: B3 VL with R30S, L94V
notes: as for B1
In the case of B5, the figures for the “Optical density (OD)” value in experiment [13], in [14] and in experiment [15] were 2.5 OD, 0.4 OD and 0.6 OD, respectively.

B6: Antibody 77.B08 (antibody, V domains shown)
VH: QEHLVESGGGLVQPEGSLTLTCTASGFDFSSDDMSWVRQAPGKGLEWIGVIGTGNGGTYYASWAKGRFTISKTSSTTVTLQMTSLTAADTATYFCAAFWGLWGPGTLVTVSS
VL: AQVLTQTASPVSTPVGGTVTITCQSSQSVYNNNRLAWFQQKPGQPPKLLIYTASTLASGVPSRFKGSGSGTQFTLTISDLECDDAATYYCAGGYSTDIYTFGGGTEVVVR
notes: as for B1
For B6, the “Optical density (OD)” value in experiment [16] came out at 0.144 OD; in experiment [17] it was 0.112 OD; in experiment [18] it was 0.242 OD.

B7: Antibody B08 (antibody, V domains shown)
VH: B6 VH
VL: B6 VL with T13A, P14A, N33I, A53T, T55S, T96S
notes: as for B1
As for B7, the “Optical density (OD)” value was 0.7 OD in [19], 0.405 OD in experiment [20], 0.402 OD in [21] and 1.14 OD in [22].

B8: Antibody D11 (antibody, V domains shown)
VH: B6 VH
VL: B6 VL with A8P, T13A, P14A, T22N, S28N, N31R
notes: as for B1
Regarding B8, the binding result in experiment [23] is recorded as “no binding (tested: OD 0.1 or lower)”. Moreover, the “Optical density (OD)” value in experiment [24] turned out to be 0.149 OD; in [25], 0.119 OD; in experiment [26] it was 1.76 OD.

B9: Antibody 077.D03 (antibody, V domains shown)
VH: QSVEESGGRLVTPGTPLTLTCTVSGIDLSSNAMSWVRQAPGKGLEWIGFISSSGTTYYASWAKGRFTISKTSTTVDLKITSPTTEDTATYFCTRFDLWGQGTLVTVSS
VL: DVVMTQTPASVSEPVGGTVTINCQASQSITTALAWYQQKPGQPPKLLIYKASTLASGVSSRFKGSGSGAEYTLTISDLECADAATYYCQCTGYDTSYVGGFGGGTEVVVK
notes: as for B1
For B9, the binding result in experiment [27], in [28] and in experiment [29] was “no binding (tested: OD 0.1 or lower)” throughout.
